Source: patent CN113603773A (FIRST HOSPITAL CHINA MEDICAL UNIV, dated 2021)

Experiments:
[1] = biological target: T1, 人源淀粉样蛋白42 Aβ42 寡聚体 (human, UniProt P05067 672-713); assay: dot blot on nitrocellulose, ECL
T1 construct: domain: Aβ42; Oligomer preparation; also called Aβ42 oli

[2] = biological target: T2, 人源淀粉样蛋白42 Aβ42 纤维体 (human, UniProt P05067 672-713); assay: dot blot on nitrocellulose, ECL
T2 construct: domain: Aβ42; Fibril preparation; also called Aβ42 fib

[3] = biological target: T3, 人源淀粉样蛋白42 Aβ42 单体 (human, UniProt P05067 672-713); assay: ELISA, Aβ coated at 5 μg/mL, 7B8 diluted 1:20,000, OD450
T3 construct: domain: Aβ42; Monomer preparation; also called Aβ42 mon
T3 sequence (P05067 672-713 limits assumed): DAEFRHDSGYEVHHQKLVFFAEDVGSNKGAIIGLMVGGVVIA

Measured: binding result

T2 sequence (P05067 672-713 limits assumed): as above
T1 sequence (P05067 672-713 limits assumed): as above

B1: 靶向淀粉样蛋白的单克隆抗体7B8 (antibody, mouse IgG1, V domains shown)
VH: QVQLQQPGAELVKPGASVKLSCKTSDYSFTSYWMHWVKQRPGQGLEWIGEINPSNGRKKYNEKFKSKATLTVDTSSSTAYMQLSSLTSEDSAVYYCAREGRGYWGQGTTLTVSS
VL: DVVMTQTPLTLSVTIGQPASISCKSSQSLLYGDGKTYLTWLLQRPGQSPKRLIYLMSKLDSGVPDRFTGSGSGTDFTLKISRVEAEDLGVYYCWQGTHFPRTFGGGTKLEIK
notes: also called 抗Aβ3-10的单克隆抗体
binds: [1] | [2] | [3]
